Values joined by “and” are separate entries in the source; they are usually repeats but may differ in a detail not shown here. Identical values can stand only once. Like-named read-outs stand apart in the source and are kept apart here.
B1: mIgG 42D20-E (antibody, V domains shown)
VH: QVQLKESGPGLVAPSQSLSISCTVSGFSLIDYGVSWIRQPPGKGLEWLGVIWGDGKIYYNSVLKSRLSISKDNSKSQVFLKMNSLQTDDTAMYYCAKQGGLLFYAMDYWGQGTSVTVSS
VL: DIVMTQSPSSLAMSVGQRVTMNCKSSQSLLNSYSQKNYLAWYQQKPGQSPKLLIYFASTRESGVPDRFIGSGSETDFTLTISSVQAEDLADYFCQQHYNTPFTFGSGTKLEIK
B2: 20M12 hz01-E (antibody, human IgG1, kappa, V domains shown)
VH: QVQLVQSGAEVKKPGASVKVSCKASGYTFTSYYIHWVRQAPGQRLEWMGWIYPGNANNKYNENFKGRVTITRDTSASTAYMELSSLRSEDTAVYYCARSVYYFDYWGQGTLVTVSS
VL: EVVMTQSPATLSVSPGERATLSCKASQSVSNDVAWYQQKPGQAPRLLIYYASNRNTGIPARFSGSGSGTEFTLTISSLQSEDLAVYFCQQDYSSPYTFGGGTKVEIKR
modifications: vcMMAE conjugated to the TECP-reduced antibody; residues not stated; DAR 4.0±1
B3: 5M21 hz10-E (antibody, human IgG1, kappa, V domains shown)
VH: QVQLVQSGAEVKKPGASVKVSCKASGYTFTTYYIHWVRQAPGQRLEWMGWIYPGNVNTKYNEKFKGRVTITADKSASTAYMELSSLRSEDTAVYYCARGLYYFDYWGQGTLVTVSS
VL: DIQMTQSPSSLSASVGDRVTITCKASQSVSNDVAWYQQKPGKVPKLLIYYASNRYTGVPSRFSGSGSGTDFTLTISSLQPEDVATYYCQQDYSSPYTFGGGTKVEIKR
modifications: vcMMAE conjugated to the TECP-reduced antibody; residues not stated; DAR 4.0±1
B4: 5M21 hz11-E (antibody, human IgG1, kappa, V domains shown)
VH: QVQLVQSGAEVKKPGASVKVSCKASGYTFTTYYIHWVRQAPGQRLEWMGWIYPGNVNTKYNEKFKGRVTITADKSASTAYMELSSLRSEDTAVYYCARGLYYFDYWGQGTLVTVSS
VL: DIQMTQSPSSLSASVGDRVTITCKASQSVSNDVAWYQQKPGKVPKLLIYYASNRYTGVPSRFSGSGSGTDFTLTISSLQPEDLATYFCQQDYSSPYTFGGGTKVEIKR
modifications: vcMMAE conjugated to the TECP-reduced antibody; residues not stated; DAR 4.0±1
B5: 20M12 hz11-E (antibody, human IgG1, kappa, V domains shown)
VH: QVQLVQSGAEVKKPGASVKVSCKASGYTFTSYYIHWVRQAPGQRLEWMGWIYPGNANNKYNENFKGRVTITADKSASTAYMELSSLRSEDTAVYYCARSVYYFDYWGQGTLVTVSS
VL: EVVMTQSPATLSVSPGERATLSCKASQSVSNDVAWYQQKPGQAPRLLIYYASNRNTGIPARFSGSGSGTEFTLTISSLQSEDLAVYFCQQDYSSPYTFGGGTKVEIKR
modifications: vcMMAE conjugated to the TECP-reduced antibody; residues not stated; DAR 4.0±1
B6: 42D20 hz02 (antibody, V domains shown)
VH: QVQLQESGPGLVKPSETLSLTCTVSGFSLIDYGVSWIRQPPGKGLEWIGVIWGDGKIYYNSVLKSRVTISVDTSKNQFSLKLSSVTAADTAVYYCARQGGLLFYAMDYWGQGTLVTVSS
VL: DIVMTQSPDSLAVSLGERATINCKSSQSLLYSYSQKNYLAWYQQKPGQSPKLLIYFASTRESGVPDRFSGSGSETDFTLTISSLQAEDLAVYFCQQHYNTPFTFGAGTKLELKR
notes: Humanized
B7: 42D20 hz10-E (antibody, V domains shown)
VH: QVQLQESGPGLVKPSETLSLTCTVSGFSLIDYGVSWIRQPPGKGLEWIGVIWGDGKIYYNSVLKSRVTISKDNSKSQVSLKLSSVTAADTAVYYCAKQGGLLFYAMDYWGQGTLVTVSS
VL: DIVMTQSPDSLAVSLGERATINCKSSQSLLNSYSQKNYLAWYQQKPGQPPKLLIYFASTRESGVPDRFSGSGSGTDFTLTISSLQAEDVAVYYCQQHYNTPFTFGAGTKLELKR
modifications: vcMMAE conjugated to the TECP-reduced antibody; residues not stated; DAR 4.0±1
B8: 42D20 hz43-E (antibody, V domains shown)
VH: QVQLQESGPGLVKPSETLSLTCTVSGFSLIDYGVSWIRQPPGKGLEWIGVIWGDAKIYYNSVLKSRVTISKDNSKSQVSLKLSSVTAADTAVYYCAKQGGLLFYAMDYWGQGTLVTVSS
VL: DIVMTQSPDSLAVSLGERATINCKSSQSLLNTYSQKNYLAWYQQKPGQSPKLLIYFASTRESGVPDRFSGSGSETDFTLTISSLQAEDLAVYFCQQHYNTPFTFGAGTKLELKR
modifications: vcMMAE conjugated to the TECP-reduced antibody; residues not stated; DAR 4.0±1
B9: 42D20 hz64-E (antibody, V domains shown)
VH: QVQLQESGPGLVKPSETLSLTCTVSGFSLIDYGVSWIRQPPGKGLEWIGVIWGGGKIYYNSVLKSRVTISKDNSKSQVSLKLSSVTAADTAVYYCAKQGGLLFYAMDYWGQGTLVTVSS
VL: DIVMTQSPDSLAVSLGERATINCKSSQSLLNKYSQKNYLAWYQQKPGQPPKLLIYFASTRESGVPDRFSGSGSGTDFTLTISSLQAEDVAVYYCQQHYNTPFTFGAGTKLELKR
modifications: vcMMAE conjugated to the TECP-reduced antibody; residues not stated; DAR 4.0±1
B10: 42D20 hz20 (antibody, V domains shown)
VH: QVQLQESGPGLVKPSETLSLTCTVSGFSLIDYGVSWIRQPPGKGLEWIGVIWGEGKIYYNSVLKSRVTISKDNSKSQVSLKLSSVTAADTAVYYCAKQGGLLFYAMDYWGQGTLVTVSS
VL: DIVMTQSPDSLAVSLGERATINCKSSQSLLNSYSQKNYLAWYQQKPGQPPKLLIYFASTRESGVPDRFSGSGSGTDFTLTISSLQAEDVAVYYCQQHYNTPFTFGAGTKLELKR
B11: 42D20 hz63-E (antibody, V domains shown)
VH: QVQLQESGPGLVKPSETLSLTCTVSGFSLIDYGVSWIRQPPGKGLEWIGVIWGGGKIYYNSVLKSRVTISKDNSKSQVSLKLSSVTAADTAVYYCAKQGGLLFYAMDYWGQGTLVTVSS
VL: DIVMTQSPDSLAVSLGERATINCKSSQSLLNTYSQKNYLAWYQQKPGQSPKLLIYFASTRESGVPDRFSGSGSETDFTLTISSLQAEDLAVYFCQQHYNTPFTFGAGTKLELKR
modifications: vcMMAE conjugated to the TECP-reduced antibody; residues not stated; DAR 4.0±1
B12: 42D20 hz44-E (antibody, V domains shown)
VH: QVQLQESGPGLVKPSETLSLTCTVSGFSLIDYGVSWIRQPPGKGLEWIGVIWGDAKIYYNSVLKSRVTISKDNSKSQVSLKLSSVTAADTAVYYCAKQGGLLFYAMDYWGQGTLVTVSS
VL: DIVMTQSPDSLAVSLGERATINCKSSQSLLNKYSQKNYLAWYQQKPGQPPKLLIYFASTRESGVPDRFSGSGSGTDFTLTISSLQAEDVAVYYCQQHYNTPFTFGAGTKLELKR
modifications: vcMMAE conjugated to the TECP-reduced antibody; residues not stated; DAR 4.0±1
B13: 20M12 xiIgG-E (antibody, V domains shown)
VH: QVQLQQSGPELVKPGASVRISCKASGYTFTSYYIHWVKQRPGQGLEWIGWIYPGNANNKYNENFKGKATLTADKSSSTAYMQLSSLTSEDSAVYFCARSVYYFDYWGQGTTLTVSS
VL: SVVMTQTPKFLLVSAGDRVTITCKASQSVSNDVAWYQQKPGQSPKLLIYYASNRNTGVPDRFTGSGYGTDFTFNISTVQAEDLAVYFCQQDYSSPYTFGGGTKLEIKR
modifications: vcMMAE conjugated to the TECP-reduced antibody; residues not stated; DAR 4.0±1
B14: mIgG 5M21-E (antibody, V domains shown)
VH: QVQLQQSGPELVKPGASVRITCKASGYTFTTYYIHWVKQRPGQGLEWIGWIYPGNVNTKYNEKFKGKATLTADKSSSTAYMQLSSLTSEDSAVYFCARGLYYFDYWGQGTTLTVSS
VL: SIVMTQTPKFLLVSAGDRLTITCKASQSVSNDVAWYQQKPGQSPKLLIYYASNRYTGVPDRFTGSGYGTDFTFTISTVQAEDLAVYFCQQDYSSPYTFGGGTKLEIK
B15: Enfortumab-E (antibody, human IgG1, kappa, V domains shown)
VH: EVQLVESGGGLVQPGGSLRLSCAASGFTFSSYNMNWVRQAPGKGLEWVSYISSSSSTIYYADSVKGRFTISRDNAKNSLSLQMNSLRDEDTAVYYCARAYYYGMDVWGQGTTVTVSS
VL: DIQMTQSPSSVSASVGDRVTITCRASQGISGWLAWYQQKPGKAPKFLIYAASTLQSGVPSRFSGSGSGTDFTLTISSLQPEDFATYYCQQANSFPPTFGGGTKVEIKR
modifications: vcMMAE conjugated to the TECP-reduced antibody; residues not stated; DAR 4.0±1

Tests used:
human Nectin-4 [1] = target: T1, human Nectin-4 (human, UniProt Q96NY8 32-510); experiment: cell-based or functional assay
T1 sequence (looked up): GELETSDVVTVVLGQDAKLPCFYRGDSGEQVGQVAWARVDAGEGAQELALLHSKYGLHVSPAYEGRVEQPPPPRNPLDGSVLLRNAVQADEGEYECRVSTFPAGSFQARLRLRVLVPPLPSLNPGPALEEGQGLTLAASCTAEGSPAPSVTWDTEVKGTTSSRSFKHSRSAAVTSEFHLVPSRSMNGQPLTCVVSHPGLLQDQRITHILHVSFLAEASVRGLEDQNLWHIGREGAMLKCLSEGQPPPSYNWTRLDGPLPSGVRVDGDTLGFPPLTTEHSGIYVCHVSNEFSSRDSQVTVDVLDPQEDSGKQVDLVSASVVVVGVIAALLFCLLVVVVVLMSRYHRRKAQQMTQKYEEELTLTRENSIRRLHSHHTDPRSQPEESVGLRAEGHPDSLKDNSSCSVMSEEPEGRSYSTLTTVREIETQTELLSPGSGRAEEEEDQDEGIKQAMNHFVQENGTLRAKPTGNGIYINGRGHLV

human Nectin-4 [2] = target: T1, human Nectin-4; experiment: FACS on BT474 cells
Description: (§1) The solutions of different concentrations were added to 384-well plates, 10 µl per well.
(§2) BT474 cells (breast cancer cells) expressing Nectin-4 on the cell surface were collected by centrifugation at 100 g at room temperature for 5 minutes, and then the cells were washed with PBS containing 0.5% BSA once and were centrifuged at 100 g at room temperature for 5 minutes. […] After incubation at 4° C. for 1 hour, fluorescently labeled goat anti-human IgG secondary antibody was added. After continued incubation at 4° C. for 1 hour, mean fluorescence readings of the cell populations were analyzed by a flow cytometer.

human Nectin-4 [3] = target: T1, human Nectin-4; experiment: cell-based or functional assay; remark: listed apart in the source
human Nectin-4 [4] = target: T1, human Nectin-4; experiment: cell-based or functional assay; remark: listed apart in the source
human Nectin-4 [5] = target: T1, human Nectin-4; experiment: FACS on BT474 cells; remark: listed apart in the source
Description: as §1, §2
The experiment results of the binding of engineered humanized molecules of the present disclosure to BT474 cells by FACS assay are shown in panels 3B and 3C in FIG. 3 and Tables 6 and 7.

human Nectin-4 [6] = target: T1, human Nectin-4; experiment: cell-based or functional assay; remark: listed apart in the source

Row | Binder | EC50 (ng/ml), inhibition of proliferation of BT474 cells (human Nectin-4 [1]) | Percentage of cell killing at the highest concentration (human Nectin-4 [1]) | EC50 (human Nectin-4 [2]) | Endocytosis efficiency (%) (human Nectin-4 [3]) | EC50 (ng/ml), inhibition of proliferation of BT474 cells (human Nectin-4 [4]) | Percentage of cell killing at the highest concentration (human Nectin-4 [4]) | EC50 (human Nectin-4 [5]) | Endocytosis efficiency (%) (human Nectin-4 [6])
1 | B1 | 4.64 ng/mL | 33.5% |  |  |  |  |  | 
2 | B2 |  |  | 420 ng/mL | 56.6% | 24.2 ng/mL | 32.2% |  | 
3 | B3 | 21.1 ng/mL | 29.4% |  |  |  |  |  | 
4 | B4 |  | 38.5% |  |  |  |  |  | 
5 | B5 |  |  | 232 ng/mL | 58.4% | 31.6 ng/mL | 38.3% |  | 
6 | B6 |  |  |  |  |  |  | 112 ng/mL | 
7 | B7 | 2.61 ng/mL | 33.7% | 307 ng/mL | 74% | 9.41 ng/mL | 40.8% |  | 
8 | B8 |  |  | 430 ng/mL | 68.9% | 6.31 ng/mL | 42.5% |  | 
9 | B9 |  |  | 373 ng/mL | 66.6% | 4.58 ng/mL | 40.9% |  | 
10 | B10 |  |  |  |  |  |  |  | 42%
11 | B11 |  |  | 299 ng/mL | 67.9% | 2.42 ng/mL | 47% |  | 
12 | B12 |  |  | 504 ng/mL | 71.1% | 3.61 ng/mL | 42.7% |  | 
13 | B13 |  |  | 227 ng/mL | 67% | 14.8 ng/mL | 41.4% |  | 
14 | B14 | 3.21 ng/mL | 36% |  |  |  |  |  | 
15 | B15 | 5.37 ng/mL and 3.95 ng/mL and 5.11 ng/mL and 5.3 ng/mL |  | 230 ng/mL | 58.9% | 2.26 ng/mL and 3.86 ng/mL and 2.91 ng/mL and 3.17 ng/mL |  |  | 
